From patent US20030223992A1 (SCHERING, published 2003)
Where no end group is shown, it is not given here.

T1: Human SP9155 receptor (human, UniProt Q96P65 1-431)
T1 sequence: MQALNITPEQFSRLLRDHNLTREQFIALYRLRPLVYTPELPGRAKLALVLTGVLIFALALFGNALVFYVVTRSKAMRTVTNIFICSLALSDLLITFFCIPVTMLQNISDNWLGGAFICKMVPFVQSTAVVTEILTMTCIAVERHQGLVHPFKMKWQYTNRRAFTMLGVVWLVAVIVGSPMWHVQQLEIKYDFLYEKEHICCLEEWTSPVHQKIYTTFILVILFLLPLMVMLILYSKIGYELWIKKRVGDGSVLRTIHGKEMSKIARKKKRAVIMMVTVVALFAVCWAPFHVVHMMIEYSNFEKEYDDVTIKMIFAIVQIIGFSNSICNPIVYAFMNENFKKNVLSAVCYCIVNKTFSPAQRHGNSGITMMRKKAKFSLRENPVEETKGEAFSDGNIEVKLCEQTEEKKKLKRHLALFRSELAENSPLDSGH

B1: Human P52 (peptide)
peptide: GGFSFRF-NH2
B2: Human P517 (peptide)
peptide: KKGGFSFRF-NH2
B3: Human P51 (peptide)
peptide: EHAGCRFRF-NH2
B4: Human P513 (peptide)
peptide: KGGFSFRF-NH2

The binders below were run against T1, Human SP9155 receptor (assay: cell-based or functional assay).

Point of comparison: B4, “EC50 (nM), Ca2+ flux (FLIPR) in HEK293 cells transfected with SP9155 receptor” value 258 nM. Against it:
- B1 — within 1.5-fold, 245 nM
- B2 — within 1.5-fold, 235 nM
- B3 — 6-fold higher, 1560 nM
